For one protein, Km, kcat and kcat/Km results are on record in paper PMC3834327, “N ^6-Substituted AMPs Inhibit Mammalian Deoxynucleotide N-Hydrolase DNPH1” (PLoS ONE, 2013).

Substrate in this data set: Nc1nc2c(ncn2[C@H]2C[C@H](O)[C@@H](COP(=O)(O)O)O2)c(=O)[nH]1
Description: purified protein, by the assay type. The conditions noted are these: other: substrate of human DNPH1; double reciprocal plots, five concentrations; pH 7.0.

B1: human DNPH1 (Homo sapiens) (protein)
chain: MAAAMVPGRSESWERGEPGRPALYFCGSIRGGREDRTLYERIVSRLRRFGTVLTEHVAAAELGARGEEAAGGDRLIHEQDLEWLQQADVVVAEVTQPSLGVGYELGRAVAFNKRILCLFRPQSGRVLSAMIRGAADGSRFQVWDYEEGEVEALLDRYFEADPPGQVAASPDPTT
Regarding B1, the Km was 57 ± 12 µM, the kcat came to 0.002 s⁻¹ and the kcat/Km was determined as 35 M⁻¹ s⁻¹.

As usually defined, the Km is the substrate concentration at which the rate is half of its maximum. One may read the kcat as the maximal rate divided by the concentration of active sites. For orientation: kcat/Km means the second-order rate constant that governs catalysis at low substrate concentration.
